Measurements reported in paper PMC6504876, “TFIIE orchestrates the recruitment of the TFIIH kinase module at promoter before release during transcription” (Nature Communications, 2019).
Numbering of substitutions follows the chain as printed. Numbers in names are those of the source.

B1: His-TFIIEβ/WT (natural protein, UniProt P29084 1-291, looked up)
chain: MDPSLLRERELFKKRALSTPVVEKRSASSESSSSSSKKKKTKVEHGGSSGSKQNSDHSNGSFNLKALSGSSGYKFGVLAKIVNYMKTRHQRGDTHPLTLDEILDETQHLDIGLKQKQWLMTEALVNNPKIEVIDGKYAFKPKYNVRDKKALLRLLDQHDQRGLGGILLEDIEEALPNSQKAVKALGDQILFVNRPDKKKILFFNDKSCQFSVDEEFQKLWRSVTVDSMDEEKIEEYLKRQGISSMQESGPKKVAPIQRRKKPASQKKRRFKTHNEHLAGVLKDYSDITSSK
notes: TFIIEβ, the β subunit of the general transcription factor TFIIE, encoded by GTF2E2; also called rIIEβ/WT; the β subunit of rIIEαβ/WT; source: E. coli, purified; alone or co-produced with rIIEα/WT
B2: His-TFIIEβ/A150P (natural protein, UniProt P29084 1-291, looked up)
chain: B1 chain with A150P
notes: TFIIEβ with the trichothiodystrophy patient mutation c.448G>C [p.Ala150Pro]; The mutation is found in TTD patients; also called rIIEβ/A150P; the β subunit of rIIEαβ/A150P; source: E. coli, co-produced with rIIEα/WT, purified
B3: His-TFIIEβ/D187Y (natural protein, UniProt P29084 1-291, looked up)
chain: B1 chain with D187Y
notes: TFIIEβ with the trichothiodystrophy patient mutation D187Y; The mutation is found in TTD patients; also called rIIEβ/D187Y; the β subunit of rIIEαβ/D187Y; source: E. coli, co-produced with rIIEα/WT, purified
B4: CDK7 (natural protein, UniProt P50613 1-346, looked up)
chain: MALDVKSRAKRYEKLDFLGEGQFATVYKARDKNTNQIVAIKKIKLGHRSEAKDGINRTALREIKLLQELSHPNIIGLLDAFGHKSNISLVFDFMETDLEVIIKDNSLVLTPSHIKAYMLMTLQGLEYLHQHWILHRDLKPNNLLLDENGVLKLADFGLAKSFGSPNRAYTHQVVTRWYRAPELLFGARMYGVGVDMWAVGCILAELLLRVPFLPGDSDLDQLTRIFETLGTPTEEQWPDMCSLPDYVTFKSFPGIPLHHIFSAAGDDLLDLIQGLFLFNPCARITATQALKMKYFSNRPGPTPGCQLPRPNCPVETLKEQSNPALAIKRKRTEALEQGGLPKKLIF
notes: CDK7 kinase, CAK subunit of TFIIH; It stood in the assay together with the other TFIIH subunits; also called CDK7 kinase of the CAK; source: Sf21 insect cells infected with baculoviruses for all TFIIH subunits; in whole cell extract, and purified within rIIH through Flag-XPD
B5: Flag-TFIIEα (natural protein, UniProt P29083 1-439, looked up)
chain: MADPDVLTEVPAALKRLAKYVIRGFYGIEHALALDILIRNSCVKEEDMLELLKFDRKQLRSVLNNLKGDKFIKCRMRVETAADGKTTRHNYYFINYRTLVNVVKYKLDHMRRRIETDERDSTNRASFKCPVCSSTFTDLEANQLFDPMTGTFRCTFCHTEVEEDESAMPKKDARTLLARFNEQIEPIYALLRETEDVNLAYEILEPEPTEIPALKQSKDHAATTAGAASLAGGHHREAWATKGPSYEDLYTQNVVINMDDQEDLHRASLEGKSAKERPIWLRESTVQGAYGSEDMKEGGIDMDAFQEREEGHAGPDDNEEVMRALLIHEKKTSSAMAGSVGAAAPVTAANGSDSESETSESDDDSPPRPAAVAVHKREEDEEEDDEFEEVADDPIVMVAGRPFSYSEVSQRPELVAQMTPEEKEAYIAMGQRMFEDLFE
notes: TFIIEα, the α subunit of the general transcription factor TFIIE; The methods name an anti-Flag-Tag antibody among those used for the co-immunoprecipitations; also called rIIEα/WT; the α subunit of rIIEαβ; source: E. coli, purified; alone or co-produced with rIIEβ

Columns and labels:
Conditions in all cases: both partners purified
[1] = molecular target: T1, recombinant TFIIH (rIIH/WT) (UniProt P18074 1-760; P19447 1-782; P32780 1-548; Q92759 1-462; Q13888 1-395; Q13889 …); test: co-IP; rIIH/WT immunoprecipitated with anti-p62 (protein G magnetic beads) and incubated with rIIEαβ (α and β added together as the co-produced rIIE), washes at 150 and 500 mM KCl; blots with anti-XPB, anti-IIEα, anti-IIEβ (Fig. 3b)
T1 construct: XPD subunit of TFIIH; XPB subunit of TFIIH; p62 subunit of TFIIH; p52 subunit of TFIIH; p44 subunit of TFIIH; p34 subunit of TFIIH; p8 (TTDA, TTD-A) subunit of TFIIH; cdk7 (CDK7 kinase), CAK subunit of TFIIH; cyclin H, CAK subunit of TFIIH; MAT1, CAK subunit of TFIIH; also called rIIH-XPD/WT; TFIIH/WT; copies: + + + + + + + + +

[2] = molecular target: B5; test: co-IP; rIIEα/WT co-produced with rIIEβ/WT, /A150P or /D187Y, immunoprecipitated at 150 and 500 mM KCl; blots for IIEα and IIEβ (Fig. 3e)
[3] = molecular target: T2, Flag-XPD/WT (UniProt P18074 1-760); test: co-IP; purified rIIH with XPD/WT, /R112H or /R722W immunoprecipitated with anti-XPD and incubated at 150 and 500 mM KCl; blots for XPB, XPD, CDK7 (Fig. 3f)
T2 construct: XPD subunit of TFIIH; also called the XPD subunit of rIIH/WT; source: Sf21 insect cells infected with baculoviruses for all TFIIH subunits

Row | Binder | binding result [1] | binding result [2] | binding result [3]
1 | B1 | binds | binds | 
2 | B2 | binds | binds | 
3 | B3 | binds | binds | 
4 | B4 |  |  | binds
5 | B5 | binds |  | 
